Test results reported in the supplement of paper PMC10567573.

B1: WEE1 (parent)
chain: INPFTPDSLLLHSSGQCRRRKRTY

Variants of: B1
Assay: protein stability index of a GFP-peptide fusion (GPS, HEK-293T) (PSI 1-6); higher = more stable
Details: c terminus: a fixed tail appended
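Also: lentivirally expressed fusions sorted by FACS into six bins by GFP to DsRed ratio, PSI derived from sequencing read proportions per bin multiplied by bin number.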

Variant	protein stability index
IIPFTPDSLLLHSSGQCRRRKRTY [N2I]	2.36
IKPFTPDSLLLHSSGQCRRRKRTY [N2K]	2.83
ILPFTPDSLLLHSSGQCRRRKRTY [N2L]	2.37
IMPFTPDSLLLHSSGQCRRRKRTY [N2M]	3.08
IPPFTPDSLLLHSSGQCRRRKRTY [N2P]	3.29
IQPFTPDSLLLHSSGQCRRRKRTY [N2Q]	3.57
IRPFTPDSLLLHSSGQCRRRKRTY [N2R]	2.9
ISPFTPDSLLLHSSGQCRRRKRTY [N2S]	3.54
ITPFTPDSLLLHSSGQCRRRKRTY [N2T]	3.59
IVPFTPDSLLLHSSGQCRRRKRTY [N2V]	3.39
IWPFTPDSLLLHSSGQCRRRKRTY [N2W]	2.39
IYPFTPDSLLLHSSGQCRRRKRTY [N2Y]	2.55
INAFTPDSLLLHSSGQCRRRKRTY [P3A]	3.21
INCFTPDSLLLHSSGQCRRRKRTY [P3C]	3.41
INDFTPDSLLLHSSGQCRRRKRTY [P3D]	3.33
INEFTPDSLLLHSSGQCRRRKRTY [P3E]	3.44
INFFTPDSLLLHSSGQCRRRKRTY [P3F]	2.33
INGFTPDSLLLHSSGQCRRRKRTY [P3G]	3.11
INHFTPDSLLLHSSGQCRRRKRTY [P3H]	3.93
INIFTPDSLLLHSSGQCRRRKRTY [P3I]	2.69
INKFTPDSLLLHSSGQCRRRKRTY [P3K]	3.1
INLFTPDSLLLHSSGQCRRRKRTY [P3L]	2.61
INMFTPDSLLLHSSGQCRRRKRTY [P3M]	2.99
INNFTPDSLLLHSSGQCRRRKRTY [P3N]	3.12

Variant	protein stability index
INQFTPDSLLLHSSGQCRRRKRTY [P3Q]	3.35
INRFTPDSLLLHSSGQCRRRKRTY [P3R]	3.4
INSFTPDSLLLHSSGQCRRRKRTY [P3S]	3.51
INTFTPDSLLLHSSGQCRRRKRTY [P3T]	3.06
INVFTPDSLLLHSSGQCRRRKRTY [P3V]	2.71
INWFTPDSLLLHSSGQCRRRKRTY [P3W]	1.3
INYFTPDSLLLHSSGQCRRRKRTY [P3Y]	2.38
INPATPDSLLLHSSGQCRRRKRTY [F4A]	4.11
INPCTPDSLLLHSSGQCRRRKRTY [F4C]	3.67
INPDTPDSLLLHSSGQCRRRKRTY [F4D]	3.99
INPETPDSLLLHSSGQCRRRKRTY [F4E]	4.48
INPGTPDSLLLHSSGQCRRRKRTY [F4G]	4.05
INPHTPDSLLLHSSGQCRRRKRTY [F4H]	4.25
INPITPDSLLLHSSGQCRRRKRTY [F4I]	3.79
INPKTPDSLLLHSSGQCRRRKRTY [F4K]	4.27
INPLTPDSLLLHSSGQCRRRKRTY [F4L]	3.2
INPMTPDSLLLHSSGQCRRRKRTY [F4M]	4.04
INPNTPDSLLLHSSGQCRRRKRTY [F4N]	4.08
INPPTPDSLLLHSSGQCRRRKRTY [F4P]	4.58
INPQTPDSLLLHSSGQCRRRKRTY [F4Q]	4.22
INPRTPDSLLLHSSGQCRRRKRTY [F4R]	3.77
INPSTPDSLLLHSSGQCRRRKRTY [F4S]	4.18
INPTTPDSLLLHSSGQCRRRKRTY [F4T]	4.38
INPVTPDSLLLHSSGQCRRRKRTY [F4V]	4.08

Variant	protein stability index
INPWTPDSLLLHSSGQCRRRKRTY [F4W]	3.87
INPYTPDSLLLHSSGQCRRRKRTY [F4Y]	3.31
INPFAPDSLLLHSSGQCRRRKRTY [T5A]	3.93
INPFCPDSLLLHSSGQCRRRKRTY [T5C]	2.87
INPFDPDSLLLHSSGQCRRRKRTY [T5D]	4.01
INPFEPDSLLLHSSGQCRRRKRTY [T5E]	3.98
INPFFPDSLLLHSSGQCRRRKRTY [T5F]	2.67
INPFGPDSLLLHSSGQCRRRKRTY [T5G]	3.76
INPFHPDSLLLHSSGQCRRRKRTY [T5H]	3.33
INPFIPDSLLLHSSGQCRRRKRTY [T5I]	2.48
INPFKPDSLLLHSSGQCRRRKRTY [T5K]	3.45
INPFLPDSLLLHSSGQCRRRKRTY [T5L]	3.04
INPFMPDSLLLHSSGQCRRRKRTY [T5M]	2.89
INPFNPDSLLLHSSGQCRRRKRTY [T5N]	3.24
INPFPPDSLLLHSSGQCRRRKRTY [T5P]	2.95
INPFQPDSLLLHSSGQCRRRKRTY [T5Q]	3.78
INPFRPDSLLLHSSGQCRRRKRTY [T5R]	3.41
INPFSPDSLLLHSSGQCRRRKRTY [T5S]	3.23
INPFVPDSLLLHSSGQCRRRKRTY [T5V]	3.71
INPFWPDSLLLHSSGQCRRRKRTY [T5W]	2.51
INPFYPDSLLLHSSGQCRRRKRTY [T5Y]	2.93
INPFTADSLLLHSSGQCRRRKRTY [P6A]	4
INPFTCDSLLLHSSGQCRRRKRTY [P6C]	3.04
INPFTDDSLLLHSSGQCRRRKRTY [P6D]	3.87

Variant	protein stability index
INPFTEDSLLLHSSGQCRRRKRTY [P6E]	3.71
INPFTFDSLLLHSSGQCRRRKRTY [P6F]	2.64
INPFTGDSLLLHSSGQCRRRKRTY [P6G]	3.58
INPFTHDSLLLHSSGQCRRRKRTY [P6H]	3.18
INPFTIDSLLLHSSGQCRRRKRTY [P6I]	2.79
INPFTKDSLLLHSSGQCRRRKRTY [P6K]	3.26
INPFTLDSLLLHSSGQCRRRKRTY [P6L]	2.06
INPFTMDSLLLHSSGQCRRRKRTY [P6M]	2.52
INPFTNDSLLLHSSGQCRRRKRTY [P6N]	4.07
INPFTQDSLLLHSSGQCRRRKRTY [P6Q]	3.09
INPFTRDSLLLHSSGQCRRRKRTY [P6R]	3.02
INPFTSDSLLLHSSGQCRRRKRTY [P6S]	3.61
INPFTTDSLLLHSSGQCRRRKRTY [P6T]	3.2
INPFTVDSLLLHSSGQCRRRKRTY [P6V]	2.07
INPFTWDSLLLHSSGQCRRRKRTY [P6W]	2.21
INPFTYDSLLLHSSGQCRRRKRTY [P6Y]	2.56
INPFTPASLLLHSSGQCRRRKRTY [D7A]	3.13
INPFTPCSLLLHSSGQCRRRKRTY [D7C]	2.46
INPFTPESLLLHSSGQCRRRKRTY [D7E]	3.6
INPFTPFSLLLHSSGQCRRRKRTY [D7F]	2.12
INPFTPGSLLLHSSGQCRRRKRTY [D7G]	2.24
INPFTPHSLLLHSSGQCRRRKRTY [D7H]	2.69
INPFTPISLLLHSSGQCRRRKRTY [D7I]	2.55
INPFTPKSLLLHSSGQCRRRKRTY [D7K]	3.31

Variant	protein stability index
INPFTPLSLLLHSSGQCRRRKRTY [D7L]	2.73
INPFTPMSLLLHSSGQCRRRKRTY [D7M]	3.12
INPFTPNSLLLHSSGQCRRRKRTY [D7N]	2.41
INPFTPPSLLLHSSGQCRRRKRTY [D7P]	3.09
INPFTPQSLLLHSSGQCRRRKRTY [D7Q]	3.52
INPFTPRSLLLHSSGQCRRRKRTY [D7R]	3.39
INPFTPSSLLLHSSGQCRRRKRTY [D7S]	3.14
INPFTPTSLLLHSSGQCRRRKRTY [D7T]	3.51
INPFTPVSLLLHSSGQCRRRKRTY [D7V]	2.63
INPFTPWSLLLHSSGQCRRRKRTY [D7W]	3.99
INPFTPYSLLLHSSGQCRRRKRTY [D7Y]	3.27
INPFTPDALLLHSSGQCRRRKRTY [S8A]	3.42
INPFTPDCLLLHSSGQCRRRKRTY [S8C]	2.73
INPFTPDDLLLHSSGQCRRRKRTY [S8D]	4
INPFTPDELLLHSSGQCRRRKRTY [S8E]	4.08
INPFTPDFLLLHSSGQCRRRKRTY [S8F]	2.5
INPFTPDGLLLHSSGQCRRRKRTY [S8G]	3.44
INPFTPDHLLLHSSGQCRRRKRTY [S8H]	3.83
INPFTPDILLLHSSGQCRRRKRTY [S8I]	2.6
INPFTPDKLLLHSSGQCRRRKRTY [S8K]	3.35
INPFTPDLLLLHSSGQCRRRKRTY [S8L]	2.82
INPFTPDMLLLHSSGQCRRRKRTY [S8M]	2.75
INPFTPDNLLLHSSGQCRRRKRTY [S8N]	3.75
INPFTPDPLLLHSSGQCRRRKRTY [S8P]	2.77

Variant	protein stability index
INPFTPDQLLLHSSGQCRRRKRTY [S8Q]	3.73
INPFTPDRLLLHSSGQCRRRKRTY [S8R]	2.71
INPFTPDTLLLHSSGQCRRRKRTY [S8T]	2.81
INPFTPDVLLLHSSGQCRRRKRTY [S8V]	3.25
INPFTPDWLLLHSSGQCRRRKRTY [S8W]	3.5
INPFTPDYLLLHSSGQCRRRKRTY [S8Y]	2.65
INPFTPDSALLHSSGQCRRRKRTY [L9A]	3.61
INPFTPDSCLLHSSGQCRRRKRTY [L9C]	3.35
INPFTPDSDLLHSSGQCRRRKRTY [L9D]	4.2
INPFTPDSELLHSSGQCRRRKRTY [L9E]	3.96
INPFTPDSFLLHSSGQCRRRKRTY [L9F]	2.94
INPFTPDSGLLHSSGQCRRRKRTY [L9G]	4.28
INPFTPDSHLLHSSGQCRRRKRTY [L9H]	4.06
INPFTPDSILLHSSGQCRRRKRTY [L9I]	3.25
INPFTPDSKLLHSSGQCRRRKRTY [L9K]	3.42
INPFTPDSMLLHSSGQCRRRKRTY [L9M]	3.35
INPFTPDSNLLHSSGQCRRRKRTY [L9N]	3.83
INPFTPDSPLLHSSGQCRRRKRTY [L9P]	3.96
INPFTPDSQLLHSSGQCRRRKRTY [L9Q]	3.68
INPFTPDSRLLHSSGQCRRRKRTY [L9R]	3.74
INPFTPDSSLLHSSGQCRRRKRTY [L9S]	4.06
INPFTPDSTLLHSSGQCRRRKRTY [L9T]	3.67
INPFTPDSVLLHSSGQCRRRKRTY [L9V]	3.76
INPFTPDSWLLHSSGQCRRRKRTY [L9W]	3.32

Variant	protein stability index
INPFTPDSYLLHSSGQCRRRKRTY [L9Y]	2.63
INPFTPDSLALHSSGQCRRRKRTY [L10A]	3.96
INPFTPDSLCLHSSGQCRRRKRTY [L10C]	3.68
INPFTPDSLDLHSSGQCRRRKRTY [L10D]	3.9
INPFTPDSLELHSSGQCRRRKRTY [L10E]	3.41
INPFTPDSLFLHSSGQCRRRKRTY [L10F]	3.42
INPFTPDSLGLHSSGQCRRRKRTY [L10G]	3.83
INPFTPDSLHLHSSGQCRRRKRTY [L10H]	4.01
INPFTPDSLILHSSGQCRRRKRTY [L10I]	3.61
INPFTPDSLKLHSSGQCRRRKRTY [L10K]	3.2
INPFTPDSLMLHSSGQCRRRKRTY [L10M]	3.38
INPFTPDSLNLHSSGQCRRRKRTY [L10N]	3.85
INPFTPDSLPLHSSGQCRRRKRTY [L10P]	4.07
INPFTPDSLQLHSSGQCRRRKRTY [L10Q]	3.5
INPFTPDSLRLHSSGQCRRRKRTY [L10R]	3.76
INPFTPDSLSLHSSGQCRRRKRTY [L10S]	3.88
INPFTPDSLTLHSSGQCRRRKRTY [L10T]	4.03
INPFTPDSLVLHSSGQCRRRKRTY [L10V]	3.81
INPFTPDSLWLHSSGQCRRRKRTY [L10W]	3.43
INPFTPDSLYLHSSGQCRRRKRTY [L10Y]	2.89
INPFTPDSLLAHSSGQCRRRKRTY [L11A]	3.76
INPFTPDSLLCHSSGQCRRRKRTY [L11C]	3.75
INPFTPDSLLDHSSGQCRRRKRTY [L11D]	4.11
INPFTPDSLLEHSSGQCRRRKRTY [L11E]	4.42

Variant	protein stability index
INPFTPDSLLFHSSGQCRRRKRTY [L11F]	3.01
INPFTPDSLLGHSSGQCRRRKRTY [L11G]	3.95
INPFTPDSLLHHSSGQCRRRKRTY [L11H]	3.47
INPFTPDSLLIHSSGQCRRRKRTY [L11I]	3.97
INPFTPDSLLKHSSGQCRRRKRTY [L11K]	4.2
INPFTPDSLLMHSSGQCRRRKRTY [L11M]	3.94
INPFTPDSLLNHSSGQCRRRKRTY [L11N]	3.92
INPFTPDSLLPHSSGQCRRRKRTY [L11P]	4.55
INPFTPDSLLQHSSGQCRRRKRTY [L11Q]	3.39
INPFTPDSLLRHSSGQCRRRKRTY [L11R]	3.38
INPFTPDSLLSHSSGQCRRRKRTY [L11S]	3.96
INPFTPDSLLTHSSGQCRRRKRTY [L11T]	3.54
INPFTPDSLLVHSSGQCRRRKRTY [L11V]	3.04
INPFTPDSLLWHSSGQCRRRKRTY [L11W]	2.99
INPFTPDSLLYHSSGQCRRRKRTY [L11Y]	3.75
INPFTPDSLLLASSGQCRRRKRTY [H12A]	3.61
INPFTPDSLLLCSSGQCRRRKRTY [H12C]	2.57
INPFTPDSLLLESSGQCRRRKRTY [H12E]	4.06
INPFTPDSLLLFSSGQCRRRKRTY [H12F]	3.03
INPFTPDSLLLGSSGQCRRRKRTY [H12G]	3.18
